Measured values: paper PMC2529288

Molecular target: Secretory leukoproteinase inhibitor (human (endogenous in A549)) (UniProt P03973)
Chain of UniProt P03973 (P03973 26-132): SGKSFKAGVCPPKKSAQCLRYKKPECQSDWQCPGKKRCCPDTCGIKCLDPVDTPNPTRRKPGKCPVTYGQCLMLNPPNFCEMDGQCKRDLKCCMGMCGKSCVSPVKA

neutrophil elastase (from UniProt P08246 30-267) (enzyme)
SLPI concentration (ELISA) in the lower Transwell compartment of A549 cells, 10 min after 10 nM NE was added to the lower compartment only, as % of control wells: 8.6 % of control
SLPI concentration (ELISA) in the upper Transwell compartment of A549 cells, 10 min after 10 nM NE was added to the upper compartment only, as % of control wells: 10.6 % of control
